In US9884910B2, “Anti-PDGF-C antibodies” (ThromboGenics NV, priority 2012, dated 2018):

Legend:
[1] = target: T1, PDGFRα activation by human PDGF-C (Homo sapiens, UniProt Q9NRA1); experiment: PathHunter PDGFRα receptor tyrosine kinase assay in U2OS PDGFRα PLCG1 cells; assay type: cell-based
T1 construct: the growth factor domain of PDGF-C (amino acids 235-345 of human PDGF-C); purchased R&D Systems 1687-CC/CF; host or cells: ligand added to U2OS PDGFRα PLCG1 cells (DiscoveRx, assay 93-0823C3) that express the transfected receptor
T1 sequence (Q9NRA1 235-345): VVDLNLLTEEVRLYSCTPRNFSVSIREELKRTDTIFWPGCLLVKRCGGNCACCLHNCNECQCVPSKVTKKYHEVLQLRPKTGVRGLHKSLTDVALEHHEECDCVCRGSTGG
Text: To evaluate the inhibitory activity of anti-human PDGF-C antibodies on PDGFRα activation by human PDGF-C, the PathHunter® receptor tyrosine kinase assay for PDGFRα (93-0823C3) from DiscoveRx® was used. […] A small complementing fragment of β-gal, the Prolink™ tag (PK) has been fused recombinantly to the intracellular C-terminus of the receptor tyrosine kinase PDGFRα. The larger portion of β-gal, termed EA for enzyme acceptor, is co-expressed with an SH2 (Src Homology 2) phosphotyrosine binding domain. Ligand-induced activation of the receptor results in dimerization and intra-cellular cross-phosphorylation of the receptor. Subsequently, the SH2 domain specifically binds the phosphorylated receptor resulting in the complementation of the two β-gal fragments PK and EA, and formation of a functional β-gal enzyme. Following addition of a β-gal substrate, an easily detectable chemiluminescent signal is produced which is directly correlated to receptor activation. The LumiLITE™ microplate reader is fully compatible with all EFC-based assays of DiscoveRx® and is therefore used.
For the PathHunter® PDGFRα, assay, U2OS PDGFRα, PLCG1 (phospholipase Cγ as the source of the SH2 domain) cells from DiscoveRx® were used. Frozen cells were stored in liquid nitrogen. Upon thawing, cells were resuspended in pre-warmed thawing medium (i.e. culture medium without the selection antibiotics Geneticin and Hygromycin B). After 48 hours of culture in a 5% CO2 incubator at 37° C., thawing medium was replaced by culture medium (MEM Eagle 1× (30-2003 from Invitrogen), 10% fetal bovine serum (SH30071.03 from Perbio Science), 1× Penicillin-Streptomycin-Glutamine (10378-016 from Invitrogen), 250 μg/ml Hygromycin B (10687-010 from Invitrogen), 500 μg/ml Geneticin (10131-035 from Invitrogen)). Once confluence was reached, cells were passaged with a ⅓ dilution every 2-3 days using Accutase (L11-007 from PAA). Cells were maintained in a non-confluent state during routine culture.
In the PathHunter® PDGFRα, assay, the U2OS PDGFRα, PLCG1 cells from DiscoveRx® cultured up to 10 passages were used. Cells were seeded at 20.000 cells in 100 μl per well in 96-well white culture-treated microplates with clear bottom (3610 from Corning). The PathHunter® Cell Plating 16 Reagent (93-0563R16 from DiscoveRx®) was employed as seeding medium. Following 24 hours of culture in 5% CO2 at 37° C., 25 μl of a 5-fold concentrated agonist solution in Cell Plating 16 Reagent was used per well to stimulate the cells. Recombinant human PDGF-C from R&D Systems (1687-CC/CF; Va1235-Gly345) was applied as agonist. After 3 hours incubation at room temperature, 60 μl of PathHunter® detection reagent (93-0001 from DiscoveRx®; 1 part Galacton Star® Substrate, 5 parts Emerald II™ Solution, and 19 parts of PathHunter® Cell Assay Buffer) was added. Cells were placed at room temperature and in the dark for another hour before luminescence was measured with the LumiLITE™ microplate reader. With GraphPad Prism® software, a non-linear regression analysis was performed using the obtained luminescent values in order to generate a sigmoidal agonist dose-response curve with variable slope. The EC50 (i.e. half maximal effective concentration) and EC80 value (i.e. the effective concentration that leads to 80% of the maximal response) for human PDGF-C was calculated.
To evaluate the inhibitory activity of anti-human PDGF-C antibodies on PDGFRα, activation by human PDGF-C, equal volumes of […] concentrated solutions of anti-human PDGF-C antibodies and the EC80 of human PDGF-C, prepared in Cell Plating 16 Reagent, were mixed and the assay was performed as described above. As positive controls, an anti-human PDGF-C polyclonal goat IgG antibody (AF1560 from R&D Systems) and recombinant human PDGFRα, Fc chimera (6765-PR from R&D Systems) were employed. […]

PDGF-C = target: T2, PDGF-C (Homo sapiens, UniProt Q9NRA1); experiment: Surface Plasmon Resonance affinity of anti-PDGF-C antibodies for PDGF-C (Biacore 3000); assay type: binding; conditions: humanized antibodies; as in Example 3
T2 construct: the growth factor domain of PDGF-C (amino acids 235-345 of human PDGF-C); purchased R&D Systems 1687-CC/CF
T2 sequence (Q9NRA1 235-345): as above
Protocol: The different antibodies were each separately coated to a CM5 chip at a density of 1680 RU using standard amine chemistry. Different concentrations (200, 175, 150, 125, 100, 75, 50, 25, 12.5, 6.25, 3.125 & 0 nM) of PDGF-C (R&D Systems, Cat. 1687-CC/CF) were injected over the coated antibody for 5 min, then buffer was flowed for 10 min to monitor the dissociation of the captured antigen. The surface was regeneration between each run with a single injection of glycine-HCl, pH 2.5. Affinities were obtained by analyzing the sensorgrams with the help of the BIAevaluation 4.1 software assuming a 1:1 interaction. The experiment was performed with a Biacore 3000 instrument.
The affinity of the above-listed exemplary humanized anti-PDGF-C antibodies for PDGF-C was analysed (as in Example 3) and the humanized antibodies were subsequently assessed in the in vitro bioassay described in Example 4.

glioblastoma tumor, U118 = experiment: Antitumor effect against U118 glioblastoma xenograft; assay type: in vivo
Protocol: For the evaluation of anti-tumor activity of the antibodies, animals were weighed and tumors measured 2 times weekly using a caliper. Tumor weights were calculated using the formula mass (mg)=[length (mm)×width (mm)^2]/2. Antitumor activity evaluation was done at the single dose of 20 mg/kg. A dosage producing a 20% body weight loss (bwl) or 10% or more drug deaths, was considered an excessively toxic dosage. Animal body weights included the tumor weights. The primary efficacy end point is the tumor growth inhibition (% TGI). Changes in tumor volume for each treated (T) and control (C) are calculated for each tumor by subtracting the tumor volume on the day of first treatment (staging day) from the tumor volume on the specified observation day. The median ΔT is calculated for the treated group and the median ΔC is calculated for the control group. Then the ratio ΔT/ΔC is calculated and expressed as a percentage of TGI: ΔT=Tt−T0 ΔC=Ct−C0 % TGI=[1−(median(Tt−T0)/median(Ct−C0)]*100
The antitumor effect of 29H1, 5A2 and 16B1 was evaluated against a measurable glioblastoma tumor, U118, which express both PDGF-C and its receptor, PDGFRa, S.C. implanted in female SCID Beige mice. Control group was treated with PBS alone. The antibodies were administered by an intraperitoneal (IP) injection, and treatment started on day 28 post-tumor implantation and was performed twice a week.

[2] = target: T3, 15-mer, overlapping peptides covering the entire human PDGF-C molecule (Homo sapiens, UniProt Q9NRA1); experiment: Epitope mapping ELISA on 15-mer overlapping peptides; assay type: binding; conditions: peptide coated 10 μg/mL; antibody 1 μg/mL
T3 construct: host or cells: chemical synthesis
Protocol: The binding of anti-PDGF-C antibodies to 15-mer, overlapping peptides covering the entire human PDGF-C molecule was assessed by ELISA. Antibodies included in this analysis are the five antibodies potently inhibiting activation of PDGF-Rα by PDGF-C, i.e. monoclonal antibodies 2D3, 5A2, 5H7, 16B1 and 29H1. Further included are two antibodies capable of binding to PDGF-C, but not or very poorly inhibiting activation of PDGF-Rα by PDGF-C, i.e. monoclonal antibodies 12E5 (IgG1) and 19F12 (IgG2b) (see Example 4). […] For all antibodies, it was confirmed that they bind to human PDGF-C and binding to full-length human PDGF-C was for all antibodies tested more efficient than binding to any of the peptides identified as described hereafter.
The indicated peptides where synthesized in an N-terminally biotinylated form and coated onto a neutravidin plate (Thermo Scientific, Cat. 15127) at a concentration of 10 μg/mL. The antibodies listed in the table were incubated in each well at a concentration of 1 μg/mL and, following washing, were then detected in a standard ELISA format using an appropriate, HRP-labeled secondary antibody (goat anti-mouse IgG-HRP for all antibodies except sc-80290, and goat anti-rat IgG-HRP for sc-80290). Each antibody was tested at least twice, and up to 4 times. A “+” in the table indicate that a signal to background >3 was found and confirmed at least once. The background signal was measured in the absence of peptide using both the primary and the secondary antibodies. Antibodies sc-80290 and MAB1560 were tested only against peptides 42-63 since this represents the fraction of the protein that was used as an immunogen.

B1: Humanized mAb 29H1: humanized 29H1; VH SEQ ID NO:106, VL SEQ ID NO:107 (antibody, V domains shown)
VH: EVQLLESGGGLVQPGGSLRLSCAASGFTFSNYGMSWVRQTPGKGLEWVATIGSGGHYTYYPDSVKGRFTISRDNAKNTLYLQMNSLRAEDTAVYYCARQAPLWDCSDYWGQGTLLTVSS
VL: DVVMTQSPLSLPVTLGQPASISCRSSQTIVHSDGTTYLEWYLQKPGQSPRLLIYKVSNRFSGVPDRFSGSGSGTDFTLKISRVEAEDVGVYYCFQGSHVPPTFGQGTKLEIK
modifications: humanized variable heavy chain murine monoclonal antibody 29 H1; humanized variable light chain murine monoclonal antibody 29 H1
[1]; humanized antibodies, * average of 3 measurements
  IC50: 8.24 nM
PDGF-C
  Kd: 0.7 nM

B2: 29H1: murine monoclonal anti-PDGF-C antibody, IgG1 κ; VL SEQ ID NO:17, VH SEQ ID NO:21 (antibody, listed as Mus musculus, V domains shown)
VH: EVQLVESGGDLVKPGGSLKLSCAASGFTFSNYGMSWVRQTPDKRLEWVATIGSGGHYTYYPDSVKGRFTISRDSAKSTLYLQMSSLRSDDTAIYYCARQAPLWDCSDYWGQGTTLTVSS
VL: DVLMTQTPLSLPVSLGDQASISCRSNQSIVHSNGDTYLEWYLQKPGQSPNLLIYKVSNRFSGVPDRFSGSGSGTDFTLKISRVEAEDLGVYYCFQGSHVPPTFGGGTKLEIK
[1]; Table 5 first IC50 column, PDGF-C at EC80, * average of 3 measurements
  IC50: 3.45 nM
[1]; Table 5 second IC50 column (separate experiment), PDGF-C at EC80
  IC50: 0.87 nM
[1]; Table 5 third IC50 column (separate experiment), PDGF-C at EC80
  IC50: 0.24 nM
Glioblastoma tumor, U118; 20 mg/kg IP twice a week
  tolerability / body weight loss: well-tolerated with no tumor body weight loss
Glioblastoma tumor, U118; 20 mg/kg IP twice a week from day 28, day 53 post-tumor implantation
  TGI (%) Day 53: 39.4%
Glioblastoma tumor, U118; 20 mg/kg IP twice a week from day 28, day 56 post-tumor implantation
  TGI (%) Day 56: 53.0%
Glioblastoma tumor, U118; 20 mg/kg IP twice a week from day 28, day 60 post-tumor implantation
  TGI (%) Day 60: 53.8%
Glioblastoma tumor, U118; 20 mg/kg IP twice a week from day 28, day 63 post-tumor implantation
  TGI (%) Day 63: 42.8%
Glioblastoma tumor, U118; 20 mg/kg IP twice a week from day 28, day 67 post-tumor implantation
  TGI (%) Day 67: 50.0%
[2]
  binding to peptide No 58 (SEQ ID NO: 96) VLQLRPKTGVRGLHK: + (A “+” in the table indicate that a signal to background >3 was found and confirmed at least once)
